Assay results: patent US20200270325A1 (Merck Sharp & Dohme, published 2020)
Numbered stars: 1 amine (or outer) side, 2 acyl side, 3 side chain; on linkers, the order of the positions; unused ones are H or OH. Square brackets hold non-standard residues; d marks the D form. Side chains are listed from the residue outwards. Ends that are not written are not given here. * marks the point of attachment. Phe(4-CH2NH2) = NCc1ccc(C[C@H](N)C(=O)O)cc1; C18 diacid = O=C(O)CCCCCCCCCCCCCCCCC(=O)*; αMeW = C[C@](N)(Cc1c[nH]c2ccccc12)C(=O)O; C16 diacid = O=C(O)CCCCCCCCCCCCCCC(=O)*; γGlu = O=C(O)[C@H](CCC(=O)[*:2])N[*:1]; Met(O2) = CS(=O)(=O)CC[C@H](N)C(=O)O; αMeF = C[C@](N)(Cc1ccccc1)C(=O)O; αMeD = C[C@](N)(CC(=O)O)C(=O)O; AEEA = NCCOCCOCC(=O)O; Aib = CC(C)(N)C(=O)O

Key:
[1] = biological target: human Glucagon receptor (GCGR) (human, UniProt P47871 26-477); assay: cell-based or functional assay
[2] = biological target: human GLP-1 receptor (GLP1R) (human, UniProt P43220 24-463); assay: cell-based or functional assay

human Glucagon receptor (GCGR), sequence (P47871 26-477): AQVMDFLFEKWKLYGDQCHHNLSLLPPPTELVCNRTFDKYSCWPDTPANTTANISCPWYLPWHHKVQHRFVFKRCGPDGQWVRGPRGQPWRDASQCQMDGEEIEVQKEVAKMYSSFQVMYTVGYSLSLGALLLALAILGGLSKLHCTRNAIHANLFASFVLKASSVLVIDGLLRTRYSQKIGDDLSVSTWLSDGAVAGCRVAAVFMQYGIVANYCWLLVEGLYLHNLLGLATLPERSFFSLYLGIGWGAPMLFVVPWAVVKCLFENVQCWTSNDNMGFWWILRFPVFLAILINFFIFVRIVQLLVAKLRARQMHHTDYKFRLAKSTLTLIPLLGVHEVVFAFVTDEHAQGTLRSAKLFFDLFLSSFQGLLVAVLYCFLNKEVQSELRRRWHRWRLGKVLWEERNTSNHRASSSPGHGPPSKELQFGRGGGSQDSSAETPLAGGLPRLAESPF

| Binder | GCGR EC50 human [1] [nM] | GLP1R EC50 human [2] [nM] |
| --- | --- | --- |
| HXQGTFTSDYSKYLDARAAQXFVQWLXXT (Aib (U) at 2; K(PEG5-γEC18-OH) at 21; L-methionine sulphone (2) at 27; αMD (printed aMD) at 28; C-terminal amide) [TP608] | 0.21 | 0.23 |
| H[Aib]QGTFTSDYSKYLDARAAK([AEEA-γGlu-C18 diacid])DFVQWL[Met(O2)][αMeD]T-NH2 (N-terminus assumed; SMILES CC(C)C[C@H](NC(=O)[C@H](Cc1ccc(O)cc1)NC(=O)[C@H](CCCCN)NC(=O)[C@H](CO)NC(=O)[C@H](Cc1ccc(O)cc1)NC(=O)[C@H](CC(=O)O)NC(=O)[C@H](CO)NC(=O)[C@@H](NC(=O)[C@H](Cc1ccccc1)NC(=O)[C@@H](NC(=O)CNC(=O)[C@H](CCC(N)=O)NC(=O)C(C)(C)NC(=O)[C@@H](N)Cc1c[nH]cn1)[C@@H](C)O)[C@@H](C)O)C(=O)N[C@@H](CC(=O)O)C(=O)N[C@@H](C)C(=O)N[C@@H](CCCNC(=N)N)C(=O)N[C@@H](C)C(=O)N[C@@H](C)C(=O)N[C@@H](CCCCNC(=O)COCCOCCNC(=O)CC[C@H](NC(=O)CCCCCCCCCCCCCCCCC(=O)O)C(=O)O)C(=O)N[C@@H](CC(=O)O)C(=O)N[C@@H](Cc1ccccc1)C(=O)N[C@H](C(=O)N[C@@H](CCC(N)=O)C(=O)N[C@@H](Cc1c[nH]c2ccccc12)C(=O)N[C@@H](CC(C)C)C(=O)N[C@@H](CCS(C)(=O)=O)C(=O)N[C@@](C)(CC(=O)O)C(=O)N[C@H](C(N)=O)[C@@H](C)O)C(C)C) [TP628] | 0.86 | 1.39 |
| HXQGTFTSDXSKYLDARAAQDFVQWLLDT (D-Ser (s) at 2; Nle(1,2,3-triazole-4-γE-C16) at 10; C-terminal amide) [TP830] | 0.14 | 0.22 |
| H[Aib]QGTFTSDYSKYLD[Aib]RAAQDFVK([AEEA-AEEA-γGlu-C20‑OH])WL[Met(O2)]DT-NH2 [TP576] | 1.45 | 1.88 |
| HXQGTFTSDYSKYLDARAAXXFVQWLXDT (Aib (U) at 2; K(PEG2PEG2γEC20-OH) at 20; αMD at 21; L-methionine sulphone (2) at 27; C-terminal amide) [TP594] | 4.95 | 2.6 |
| HXQGTFTSDYSKYLDSRAAXDFVQWLXDT (Aib (U) at 2; K(PEG2PEG2γEC20-OH) at 20; L-methionine sulphone (2) at 27; C-terminal amide) [TP577] | 4.54 | 1.67 |
| H[Aib]QGTFTSDYSKYLDARAAK([AEEA-AEEA-γGlu-C20‑OH])D[αMeF]VQWL[Met(O2)]DT-NH2 [TP590] | 5.03 | 1.64 |
| H[Aib]QGTFTSDYSKYLDARAAQ[Phe(4-CH2NH2)]([AEEA-AEEA-γGlu-C18 diacid])FVQWLLDT-NH2 (N-terminus assumed; SMILES CC(C)C[C@H](NC(=O)[C@H](Cc1ccc(O)cc1)NC(=O)[C@H](CCCCN)NC(=O)[C@H](CO)NC(=O)[C@H](Cc1ccc(O)cc1)NC(=O)[C@H](CC(=O)O)NC(=O)[C@H](CO)NC(=O)[C@@H](NC(=O)[C@H](Cc1ccccc1)NC(=O)[C@@H](NC(=O)CNC(=O)[C@H](CCC(N)=O)NC(=O)C(C)(C)NC(=O)[C@@H](N)Cc1c[nH]cn1)[C@@H](C)O)[C@@H](C)O)C(=O)N[C@@H](CC(=O)O)C(=O)N[C@@H](C)C(=O)N[C@@H](CCCNC(=N)N)C(=O)N[C@@H](C)C(=O)N[C@@H](C)C(=O)N[C@@H](CCC(N)=O)C(=O)N[C@@H](Cc1ccc(CNC(=O)COCCOCCNC(=O)COCCOCCNC(=O)CC[C@H](NC(=O)CCCCCCCCCCCCCCCCC(=O)O)C(=O)O)cc1)C(=O)N[C@@H](Cc1ccccc1)C(=O)N[C@H](C(=O)N[C@@H](CCC(N)=O)C(=O)N[C@@H](Cc1c[nH]c2ccccc12)C(=O)N[C@@H](CC(C)C)C(=O)N[C@@H](CC(C)C)C(=O)N[C@@H](CC(=O)O)C(=O)N[C@H](C(N)=O)[C@@H](C)O)C(C)C) [TP443] | 0.18 | 0.1 |
| H[Aib]QGTFTSDYSKYLDARAAQDFVQWL[Met(O2)][Phe(4-CH2NH2)]([AEEA-AEEA-γGlu-C18 diacid])T-NH2 (N-terminus assumed; SMILES CC(C)C[C@H](NC(=O)[C@H](Cc1ccc(O)cc1)NC(=O)[C@H](CCCCN)NC(=O)[C@H](CO)NC(=O)[C@H](Cc1ccc(O)cc1)NC(=O)[C@H](CC(=O)O)NC(=O)[C@H](CO)NC(=O)[C@@H](NC(=O)[C@H](Cc1ccccc1)NC(=O)[C@@H](NC(=O)CNC(=O)[C@H](CCC(N)=O)NC(=O)C(C)(C)NC(=O)[C@@H](N)Cc1c[nH]cn1)[C@@H](C)O)[C@@H](C)O)C(=O)N[C@@H](CC(=O)O)C(=O)N[C@@H](C)C(=O)N[C@@H](CCCNC(=N)N)C(=O)N[C@@H](C)C(=O)N[C@@H](C)C(=O)N[C@@H](CCC(N)=O)C(=O)N[C@@H](CC(=O)O)C(=O)N[C@@H](Cc1ccccc1)C(=O)N[C@H](C(=O)N[C@@H](CCC(N)=O)C(=O)N[C@@H](Cc1c[nH]c2ccccc12)C(=O)N[C@@H](CC(C)C)C(=O)N[C@@H](CCS(C)(=O)=O)C(=O)N[C@@H](Cc1ccc(CNC(=O)COCCOCCNC(=O)COCCOCCNC(=O)CC[C@H](NC(=O)CCCCCCCCCCCCCCCCC(=O)O)C(=O)O)cc1)C(=O)N[C@H](C(N)=O)[C@@H](C)O)C(C)C) [TP604] | 1.09 | 0.47 |
| HXQGTFTSDXSKYLDARAAQDFVQWLLDT (D-Ser (s) at 2; Nle(1,2,3-triazole-4-C4-Lys-C16) at 10; C-terminal amide) [TP831] | 0.14 | 0.08 |
| H[Aib]QGTFTSDYSKYLDARAAK([AEEA-AEEA-γGlu-C16 diacid])DFVQ[αMeW]L[Met(O2)]DT-NH2 (N-terminus assumed; SMILES CC(C)C[C@H](NC(=O)[C@H](Cc1ccc(O)cc1)NC(=O)[C@H](CCCCN)NC(=O)[C@H](CO)NC(=O)[C@H](Cc1ccc(O)cc1)NC(=O)[C@H](CC(=O)O)NC(=O)[C@H](CO)NC(=O)[C@@H](NC(=O)[C@H](Cc1ccccc1)NC(=O)[C@@H](NC(=O)CNC(=O)[C@H](CCC(N)=O)NC(=O)C(C)(C)NC(=O)[C@@H](N)Cc1c[nH]cn1)[C@@H](C)O)[C@@H](C)O)C(=O)N[C@@H](CC(=O)O)C(=O)N[C@@H](C)C(=O)N[C@@H](CCCNC(=N)N)C(=O)N[C@@H](C)C(=O)N[C@@H](C)C(=O)N[C@@H](CCCCNC(=O)COCCOCCNC(=O)COCCOCCNC(=O)CC[C@H](NC(=O)CCCCCCCCCCCCCCC(=O)O)C(=O)O)C(=O)N[C@@H](CC(=O)O)C(=O)N[C@@H](Cc1ccccc1)C(=O)N[C@H](C(=O)N[C@@H](CCC(N)=O)C(=O)N[C@@](C)(Cc1c[nH]c2ccccc12)C(=O)N[C@@H](CC(C)C)C(=O)N[C@@H](CCS(C)(=O)=O)C(=O)N[C@@H](CC(=O)O)C(=O)N[C@H](C(N)=O)[C@@H](C)O)C(C)C) [TP630] | 0.89 | 0.29 |
| H[Aib]QGTFTSDYSKYLDARAAQ[Phe(4-CH2NH2)]([AEEA-AEEA-γGlu-C18 diacid])FVQWLL[αMeD]T-NH2 (N-terminus assumed; SMILES CC(C)C[C@H](NC(=O)[C@H](Cc1ccc(O)cc1)NC(=O)[C@H](CCCCN)NC(=O)[C@H](CO)NC(=O)[C@H](Cc1ccc(O)cc1)NC(=O)[C@H](CC(=O)O)NC(=O)[C@H](CO)NC(=O)[C@@H](NC(=O)[C@H](Cc1ccccc1)NC(=O)[C@@H](NC(=O)CNC(=O)[C@H](CCC(N)=O)NC(=O)C(C)(C)NC(=O)[C@@H](N)Cc1c[nH]cn1)[C@@H](C)O)[C@@H](C)O)C(=O)N[C@@H](CC(=O)O)C(=O)N[C@@H](C)C(=O)N[C@@H](CCCNC(=N)N)C(=O)N[C@@H](C)C(=O)N[C@@H](C)C(=O)N[C@@H](CCC(N)=O)C(=O)N[C@@H](Cc1ccc(CNC(=O)COCCOCCNC(=O)COCCOCCNC(=O)CC[C@H](NC(=O)CCCCCCCCCCCCCCCCC(=O)O)C(=O)O)cc1)C(=O)N[C@@H](Cc1ccccc1)C(=O)N[C@H](C(=O)N[C@@H](CCC(N)=O)C(=O)N[C@@H](Cc1c[nH]c2ccccc12)C(=O)N[C@@H](CC(C)C)C(=O)N[C@@H](CC(C)C)C(=O)N[C@@](C)(CC(=O)O)C(=O)N[C@H](C(N)=O)[C@@H](C)O)C(C)C) [TP609] | 0.36 | 0.42 |
| H[dS]QGTFTSDYSKYLE[Aib]RAAK([AEEA-AEEA-γGlu-C20‑OH])DFVQWLL[Aib]TK-{γGlu-NH2} [TP579] | > 19.9 | 14.7 |
| HXQGTFTSDXSKYLDARAAQDFVQWLLDT (D-Ser (s) at 2; Nle(1,2,3-triazole-4-C15) at 10; C-terminal amide) [TP829] | 1.06 | 0.68 |
| H[Aib]QGTFTSDYSKYLDERAA[Phe(4-CH2NH2)]([AEEA-AEEA-γGlu-C20‑OH])DFVQWLLKT-NH2 [TP586] | 4.95 | 1.23 |
| H[Aib]QGTFTSDYSKLLDARAAK([AEEA-AEEA-γGlu-C18 diacid])DFVQWL[Met(O2)][αMeD]T-NH2 (N-terminus assumed; SMILES CC(C)C[C@H](NC(=O)[C@H](CC(C)C)NC(=O)[C@H](CCCCN)NC(=O)[C@H](CO)NC(=O)[C@H](Cc1ccc(O)cc1)NC(=O)[C@H](CC(=O)O)NC(=O)[C@H](CO)NC(=O)[C@@H](NC(=O)[C@H](Cc1ccccc1)NC(=O)[C@@H](NC(=O)CNC(=O)[C@H](CCC(N)=O)NC(=O)C(C)(C)NC(=O)[C@@H](N)Cc1c[nH]cn1)[C@@H](C)O)[C@@H](C)O)C(=O)N[C@@H](CC(=O)O)C(=O)N[C@@H](C)C(=O)N[C@@H](CCCNC(=N)N)C(=O)N[C@@H](C)C(=O)N[C@@H](C)C(=O)N[C@@H](CCCCNC(=O)COCCOCCNC(=O)COCCOCCNC(=O)CC[C@H](NC(=O)CCCCCCCCCCCCCCCCC(=O)O)C(=O)O)C(=O)N[C@@H](CC(=O)O)C(=O)N[C@@H](Cc1ccccc1)C(=O)N[C@H](C(=O)N[C@@H](CCC(N)=O)C(=O)N[C@@H](Cc1c[nH]c2ccccc12)C(=O)N[C@@H](CC(C)C)C(=O)N[C@@H](CCS(C)(=O)=O)C(=O)N[C@@](C)(CC(=O)O)C(=O)N[C@H](C(N)=O)[C@@H](C)O)C(C)C) [TP640] | 0.69 | 0.84 |
